In the data set the test system is MS2 coat protein. Kind of data set: apparent KD of MS2 coat protein; higher = weaker reporter binding. The settings on record: Eterna round: R107. In short, it runs like this: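 Titrations with SNAP-549-labelled MS2 coat protein ran in twofold steps from 0.7 or 1.5 nM to 3 µM, each step taking 0.8–1.5 h at the start and 10–20 min toward the end. The targets were designed RNA switches transcribed on-chip from Illumina sequencing clusters, held in 100 mM Tris-HCl pH 7.5, 80 mM KCl, 4 mM MgCl2, without or with constant ligand. Apparent KD was taken per design as the median of normalised cluster binding-curve fits.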

Setting [1] is: input ligand: theophylline 20 uM.
Where [2] appears, read: input ligand: tryptophan 2.4 mM.
Setting [3] is: input ligand: theophylline 2 mM.

Regarding “UUUGAUAGGACAGAUACCAGCGUGUUAUAAAACAUGAGGAUCACCCAUGUAGUGAUCAAGCGCCCUUGGCAGCUGGUUUGUUAGG [7.J]”, the “apparent KD of MS2 coat protein” value is 0.0735 µM (input ligand: arginine 13.2 mM), 0.22 µM under setting [1] and 0.207 µM under setting [2].
“CUCUGAGUCCGUAAGGACUCAGAGGCGGAUACCAGCGAGGUCCAUCGCCCUUGGCAGCCGAACAUGAGGAUCACCCAUGUCGGUA [#1 Same State - Theophylline A Attempt #25 (HarryS)]”: the “apparent KD of MS2 coat protein” value runs as follows: (input ligand: arginine 13.2 mM) 0.0116 µM; (input ligand: none) 0.00976 µM; under setting [1], 0.0126 µM; under setting [3], 0.0198 µM; under setting [2], 0.0115 µM.
As for “GAGUAGAGGACGGCCGCCACUAAACAUGAGGAUCACCCAUGUCGUGAUCCGUUACCUAGGGUAGAUAGGACCGGGUCAUGUAGUC [Exclusion Tryptophan B GF 17]”, the “apparent KD of MS2 coat protein” value was determined as 0.0477 µM (input ligand: arginine 13.2 mM), 0.0658 µM under setting [1] and 0.0847 µM under setting [3].
As for “AUGACUAACAAAGAAGAUAAAAUGGGUGAACGAGGACCGGUACGGCCGCCACUCGGACAUGAGGAUCACCCAUGUCCAUGUGCAA [#23 Exclusion Tryptophan A]”, the “apparent KD of MS2 coat protein” value reads like this: (input ligand: arginine 13.2 mM) 0.0156 µM; under setting [1], 0.0217 µM; under setting [3], 0.0204 µM.
As for “GCGAUGGAGCGAAGGAGCGUGCUAGUACAUGAGGAUCACCCAUGUGAGUCGCAGCGCUAAGCACAGGUAGGUCGCGCUCCAUCGC [EAB NP+V+V2 #12]”, the “apparent KD of MS2 coat protein” value (input ligand: arginine 13.2 mM) turned out to be 0.0311 µM; the “apparent KD of MS2 coat protein” value (input ligand: none) worked out at 0.0484 µM; the “apparent KD of MS2 coat protein” value under setting [1] is 0.0268 µM; the “apparent KD of MS2 coat protein” value under setting [3] was determined as 0.0497 µM; the “apparent KD of MS2 coat protein” value under setting [2] stood at 0.0405 µM.
Turning to “UGCGACAAGUGAAUACUUUGUUCUAGAGAUACCAGUUCCCGAGUGAACCCUUGGCAGCUCCCAACAUGAGGAUCACCCAUGUAUU [theeternabot_exclusion_MS2_Theo_A_24]”, the “apparent KD of MS2 coat protein” value runs as follows: (input ligand: arginine 13.2 mM) 0.0159 µM; under setting [1], 0.02 µM; under setting [2], 0.0135 µM.
“GGACAUGCAGGAAGGAGCGACACGCAGAAACUGCAAAAUCCUCCACACGAGGAUCACCCGUGUCAGGUAGGUCGCCUGCAUGUCG [ArgXB 15 #Zipper #MS2Left #StaticStem #Blueprint]”: the “apparent KD of MS2 coat protein” value reads like this: (input ligand: arginine 13.2 mM) 0.0888 µM; (input ligand: none) 0.0733 µM; under setting [1], 0.14 µM; under setting [3], 0.127 µM; under setting [2], 0.11 µM.
The matching figures for “UGUACCUAGUCGGCCGCCACUCAAUAAUGAGAGGAUCACCCUCAUAAACGAGUCAAAGACUCGAUGAGGACCGGGACUAGGUACU [Palindromic MS2 2 #AlternativeMS2 #Palindrome #StaticStem]”: 0.0594 µM, 0.053 µM, 0.0732 µM, 0.0727 µM and 0.0211 µM.
Consider “AACCGAGGCUAUCCACAAAGAAAAUGUGAUACCAGAAUAAUUUUAUUCCCUUGGCAGCAUGACAUGAGGAUCACCCAUGUGUCUU [SSTheo A #5]”, for which the “apparent KD of MS2 coat protein” value by setting is: (input ligand: arginine 13.2 mM) 0.0297 µM; under setting [1], 0.0398 µM; under setting [2], 0.0328 µM.
As to “AGCUCGCAUCCUCAAGCGUCAAAGACGCGUCGAGGACCGGUACGGCCGCCACUCGACAAGAGGAUCACCCUUGUCUAAGCGAGCA [TrypAX 4 #SwitchBubble #AlternativeMS2 #MS2Late #CuTurnoff]”, the “apparent KD of MS2 coat protein” value reads like this: (input ligand: arginine 13.2 mM) 0.0733 µM; (input ligand: none) 0.195 µM; under setting [1], 0.182 µM; under setting [3], 0.264 µM; under setting [2], 0.254 µM.
Turning to “UCCUUAGAUACUGAUACCAGACUACAGUAAACAUGAGGAUCACCCAUGUUUGAUCACUAAGUCCCUUGGCAGCAGGUACAUGGGA [Theo B SS r1]”, the “apparent KD of MS2 coat protein” value reads like this: (input ligand: arginine 13.2 mM) 0.0126 µM; under setting [1], 0.0129 µM; under setting [2], 0.0119 µM.
On to “ACAUGAGGAUCACCCAUGUACAUGAGGGAAGGAGCGGUACAUGAGCCAGGUAGGUCGCCCAACAGCAAAUGGCAUGUACAACGGA [hhnmullin]”, for which the “apparent KD of MS2 coat protein” value is 0.0338 µM (input ligand: arginine 13.2 mM); 0.0784 µM (input ligand: none); 0.0743 µM under setting [1]; 0.0605 µM under setting [3]; 0.0635 µM under setting [2].
“UACAUGAGGAUCACCCAUGUAUUGCCGGUACGAGGACCGGUACGGCCGCCACUCGGGACAUGAGGAUCACCCAUGUGCUGCUAUU [Same State Trypophan A GF 23]”: the “apparent KD of MS2 coat protein” value by setting is: (input ligand: arginine 13.2 mM) 0.0287 µM; (input ligand: none) 0.0444 µM; under setting [1], 0.0498 µM; under setting [3], 0.0424 µM; under setting [2], 0.0458 µM.
On to “GAUGAACUAUUCGAUACCAGACCACAUGAGGAUCACCCAUGUGUGUUUCGUCCUUAGCCGGUCCCUUGGCAGCGAAUAGUUUAUC [#28 Exclusion-TheophyllineB]”, for which the “apparent KD of MS2 coat protein” value runs as follows: (input ligand: arginine 13.2 mM) 0.0258 µM; under setting [1], 0.0303 µM; under setting [2], 0.0194 µM.
Turning to “GCUAGGUCUACGGCCGCCACUAGACGUGGGUAAGACAUGAGGAUCACCCAUGUACUACAGGCGCAUAGGACCGGGUAGACCUAGC [SSTB NP+V+V2 #11 Same Structure]”, the “apparent KD of MS2 coat protein” value was found to be 0.0496 µM (input ligand: arginine 13.2 mM); 0.0789 µM (input ligand: none); 0.0745 µM under setting [1]; 0.0826 µM under setting [3]; 0.0132 µM under setting [2].
For “GGGUACAUCGCGGCCGCCACUUGUGUAAAUACAUGAGGAUCACCCAUGUCGAUGGAGACAUCGGAGAGGACCGGGUGAUGUACCG”, in that order: 0.0707 µM, 0.08 µM, 0.122 µM, 0.0965 µM and 0.0408 µM.
On to “ACAUGAGGAUCACCCAUGUAAGAUGCAGAAGGAGCGGGAAAUAACCCAGGUAGGUCGCUGCGGUUUGGAUUAUUGUGUUCGUGAA [#08 Exclusion - Arginine A]”, for which the “apparent KD of MS2 coat protein” value runs as follows: (input ligand: arginine 13.2 mM) 0.0116 µM; (input ligand: none) 0.0121 µM; under setting [1], 0.0188 µM; under setting [3], 0.0138 µM; under setting [2], 0.0125 µM.

Source of the values: the supplement of paper PMC9170038.
